Measurements: the Human Domainome abundance scans (Beltran et al. 2025)
± gives the uncertainty stated by the source.

B1: POU domain, class 4, transcription factor 1, residues 266 to 347; numbered along this chain, Q01851 (parent)
chain: RELEAFAERFKQRRIKLGVTQADVGSALANLKIPGVGSLSQSTICRFESLTLSHNNMIALKPILQAWLEEAEGAQREKMNKP

Variants of: B1
Test: abundance fitness (aPCA) (normalised: wild type 0, dead -1); higher = more abundant; growth selection in yeast, the domain comes from the species named
Details: Homo sapiens

Question: With RELEAFAERFKQRRIKLGVTQADVGSALANLKIPGVGSLSQSTIFRFESLTLSHNNMIALKPILQAWLEEAEGAQREKMNKP as the variant, how does the abundance fitness read?
Answer: -0.108 ± 0.097

Question: For RELEAFAERFKQRRIKLGVTQADVGSALANLKIPGVGSLSQSTIWRFESLTLSHNNMIALKPILQAWLEEAEGAQREKMNKP, which abundance fitness is on record?
Answer: -0.076 ± 0.048

Question: Which abundance fitness does the source give for RELEAFAERFKQRRIKLGVTQADVGSALANLKIPGVGSLSQSTIERFESLTLSHNNMIALKPILQAWLEEAEGAQREKMNKP here?
Answer: 0.06 ± 0.046

Question: With RELEAFAERFKQRRIKLGVTQADVGSALANLKIPGVGSLSQSTIARFESLTLSHNNMIALKPILQAWLEEAEGAQREKMNKP as the variant, how does the abundance fitness read?
Answer: 0.057 ± 0.043

Question: For RELEAFAERFKQRRIKLGVTQADVGSALANLKIPGVGSLSQSTIRRFESLTLSHNNMIALKPILQAWLEEAEGAQREKMNKP, which abundance fitness is on record?
Answer: 0.056 ± 0.04

Question: For RELEAFAERFKQRRIKLGVTQADVGSALANLKIPGVGSLSQSTINRFESLTLSHNNMIALKPILQAWLEEAEGAQREKMNKP, which abundance fitness is on record?
Answer: -0.084 ± 0.17

Question: For RELEAFAERFKQRRIKLGVTQADVGSALANLKIPGVGSLSQSTILRFESLTLSHNNMIALKPILQAWLEEAEGAQREKMNKP, which abundance fitness is on record?
Answer: -0.073 ± 0.05

Question: Which abundance fitness does the source give for RELEAFAERFKQRRIKLGVTQADVGSALANLKIPGVGSLSQSTIDRFESLTLSHNNMIALKPILQAWLEEAEGAQREKMNKP here?
Answer: -0.139 ± 0.09

Question: Which abundance fitness does the source give for RELEAFAERFKQRRIKLGVTQADVGSALANLKIPGVGSLSQSTITRFESLTLSHNNMIALKPILQAWLEEAEGAQREKMNKP here?
Answer: 0.11 ± 0.068

Question: With RELEAFAERFKQRRIKLGVTQADVGSALANLKIPGVGSLSQSTISRFESLTLSHNNMIALKPILQAWLEEAEGAQREKMNKP as the variant, how does the abundance fitness read?
Answer: 0.079 ± 0.047

Question: Which abundance fitness does the source give for RELEAFAERFKQRRIKLGVTQADVGSALANLKIPGVGSLSQSTIIRFESLTLSHNNMIALKPILQAWLEEAEGAQREKMNKP here?
Answer: -0.001 ± 0.09

Question: Which abundance fitness does the source give for RELEAFAERFKQRRIKLGVTQADVGSALANLKIPGVGSLSQSTIPRFESLTLSHNNMIALKPILQAWLEEAEGAQREKMNKP here?
Answer: -0.18 ± 0.075

Question: Which abundance fitness does the source give for RELEAFAERFKQRRIKLGVTQADVGSALANLKIPGVGSLSQSTIHRFESLTLSHNNMIALKPILQAWLEEAEGAQREKMNKP here?
Answer: 0.089 ± 0.12

Question: For RELEAFAERFKQRRIKLGVTQADVGSALANLKIPGVGSLSQSTIMRFESLTLSHNNMIALKPILQAWLEEAEGAQREKMNKP, which abundance fitness is on record?
Answer: 0.03 ± 0.08

Question: For RELEAFAERFKQRRIKLGVTQADVGSALANLKIPGVGSLSQSTIKRFESLTLSHNNMIALKPILQAWLEEAEGAQREKMNKP, which abundance fitness is on record?
Answer: 0.035 ± 0.058

Question: With RELEAFAERFKQRRIKLGVTQADVGSALANLKIPGVGSLSQSTIGRFESLTLSHNNMIALKPILQAWLEEAEGAQREKMNKP as the variant, how does the abundance fitness read?
Answer: -0.037 ± 0.031

Question: With RELEAFAERFKQRRIKLGVTQADVGSALANLKIPGVGSLSYSTICRFESLTLSHNNMIALKPILQAWLEEAEGAQREKMNKP as the variant, how does the abundance fitness read?
Answer: -0.194 ± 0.12

Question: For RELEAFAERFKQRRIKLGVTQADVGSALANLKIPGVGSLSQNTICRFESLTLSHNNMIALKPILQAWLEEAEGAQREKMNKP, which abundance fitness is on record?
Answer: 0.022 ± 0.082

Question: With RELEAFAERFKQRRIKLGVTQADVGSALANLKIPGVGSLSQTTICRFESLTLSHNNMIALKPILQAWLEEAEGAQREKMNKP as the variant, how does the abundance fitness read?
Answer: 0.029 ± 0.082

Question: For RELEAFAERFKQRRIKLGVTQADVGSALANLKIPGVGSLSQMTICRFESLTLSHNNMIALKPILQAWLEEAEGAQREKMNKP, which abundance fitness is on record?
Answer: -0.042 ± 0.073

Question: For RELEAFAERFKQRRIKLGVTQADVGSALANLKIPGVGSLSQITICRFESLTLSHNNMIALKPILQAWLEEAEGAQREKMNKP, which abundance fitness is on record?
Answer: -0.034 ± 0.093

Question: Which abundance fitness does the source give for RELEAFAERFKQRRIKLGVTQADVGSALANLKIPGVGSLSQLTICRFESLTLSHNNMIALKPILQAWLEEAEGAQREKMNKP here?
Answer: -0.107 ± 0.045

Question: For RELEAFAERFKQRRIKLGVTQADVGSALANLKIPGVGSLSQETICRFESLTLSHNNMIALKPILQAWLEEAEGAQREKMNKP, which abundance fitness is on record?
Answer: 0.004 ± 0.045

Question: With RELEAFAERFKQRRIKLGVTQADVGSALANLKIPGVGSLSQRTICRFESLTLSHNNMIALKPILQAWLEEAEGAQREKMNKP as the variant, how does the abundance fitness read?
Answer: -0.006 ± 0.037

Question: For RELEAFAERFKQRRIKLGVTQADVGSALANLKIPGVGSLSQFTICRFESLTLSHNNMIALKPILQAWLEEAEGAQREKMNKP, which abundance fitness is on record?
Answer: -0.199 ± 0.098

Question: For RELEAFAERFKQRRIKLGVTQADVGSALANLKIPGVGSLSQYTICRFESLTLSHNNMIALKPILQAWLEEAEGAQREKMNKP, which abundance fitness is on record?
Answer: -0.185 ± 0.22

Question: With RELEAFAERFKQRRIKLGVTQADVGSALANLKIPGVGSLSQWTICRFESLTLSHNNMIALKPILQAWLEEAEGAQREKMNKP as the variant, how does the abundance fitness read?
Answer: -0.18 ± 0.051

Question: With RELEAFAERFKQRRIKLGVTQADVGSALANLKIPGVGSLSQQTICRFESLTLSHNNMIALKPILQAWLEEAEGAQREKMNKP as the variant, how does the abundance fitness read?
Answer: -0.113 ± 0.065

Question: Which abundance fitness does the source give for RELEAFAERFKQRRIKLGVTQADVGSALANLKIPGVGSLSQPTICRFESLTLSHNNMIALKPILQAWLEEAEGAQREKMNKP here?
Answer: -0.198 ± 0.083

Question: Which abundance fitness does the source give for RELEAFAERFKQRRIKLGVTQADVGSALANLKIPGVGSLSQCTICRFESLTLSHNNMIALKPILQAWLEEAEGAQREKMNKP here?
Answer: -0.071 ± 0.055

Question: For RELEAFAERFKQRRIKLGVTQADVGSALANLKIPGVGSLSQKTICRFESLTLSHNNMIALKPILQAWLEEAEGAQREKMNKP, which abundance fitness is on record?
Answer: 0.093 ± 0.065

Question: For RELEAFAERFKQRRIKLGVTQADVGSALANLKIPGVGSLSQATICRFESLTLSHNNMIALKPILQAWLEEAEGAQREKMNKP, which abundance fitness is on record?
Answer: 0.012 ± 0.05

Question: With RELEAFAERFKQRRIKLGVTQADVGSALANLKIPGVGSLSQHTICRFESLTLSHNNMIALKPILQAWLEEAEGAQREKMNKP as the variant, how does the abundance fitness read?
Answer: -0.152 ± 0.13
